Numbered stars: 1 amine (or outer) side, 2 acyl side, 3 side chain; on linkers, the order of the positions; unused ones are H or OH. Side chains are listed from the residue outwards. Ends that are not written are not given here. * marks the point of attachment. γGlu = O=C(O)[C@H](CCC(=O)[*:2])N[*:1]; Palmitoyl = CCCCCCCCCCCCCCCC(=O)*
T1: human glucose-dependent insulinotropic peptide (gastric inhibitory polypeptide) receptor (human) (UniProt P48546)
T1 sequence (looked up): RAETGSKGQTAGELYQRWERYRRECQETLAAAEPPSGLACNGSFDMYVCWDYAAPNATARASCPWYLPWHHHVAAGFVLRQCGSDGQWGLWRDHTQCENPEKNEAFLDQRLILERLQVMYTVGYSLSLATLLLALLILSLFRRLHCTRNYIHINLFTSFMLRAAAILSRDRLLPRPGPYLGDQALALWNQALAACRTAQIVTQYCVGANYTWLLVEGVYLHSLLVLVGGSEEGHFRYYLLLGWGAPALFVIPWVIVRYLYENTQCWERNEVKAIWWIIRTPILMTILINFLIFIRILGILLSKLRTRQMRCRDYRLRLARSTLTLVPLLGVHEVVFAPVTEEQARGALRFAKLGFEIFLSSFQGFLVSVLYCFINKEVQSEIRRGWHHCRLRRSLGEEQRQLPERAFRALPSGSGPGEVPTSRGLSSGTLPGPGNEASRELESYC


What was measured:
Test in all cases: cell-based or functional assay
human glucagon receptor = human glucagon receptor (human, UniProt P47871 26-477)
human GLP-1 receptor = human GLP-1 receptor (human, UniProt P43220 24-463)
[1] = target: T1, human glucose-dependent insulinotropic peptide (gastric inhibitory polypeptide) receptor (human)

Sequence of human glucagon receptor (P47871 26-477): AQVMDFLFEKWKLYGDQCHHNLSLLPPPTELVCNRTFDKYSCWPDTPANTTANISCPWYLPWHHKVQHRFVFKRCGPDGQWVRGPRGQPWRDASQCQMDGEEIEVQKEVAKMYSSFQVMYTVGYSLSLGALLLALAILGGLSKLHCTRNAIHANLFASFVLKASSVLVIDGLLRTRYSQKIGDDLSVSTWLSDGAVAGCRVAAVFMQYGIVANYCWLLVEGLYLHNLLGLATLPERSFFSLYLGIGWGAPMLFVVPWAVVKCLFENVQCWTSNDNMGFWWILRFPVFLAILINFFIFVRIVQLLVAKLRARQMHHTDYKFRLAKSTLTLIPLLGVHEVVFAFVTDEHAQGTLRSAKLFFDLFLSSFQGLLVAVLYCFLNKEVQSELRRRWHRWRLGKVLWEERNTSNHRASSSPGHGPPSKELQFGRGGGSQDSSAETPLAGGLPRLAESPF
Sequence of human GLP-1 receptor (P43220 24-463): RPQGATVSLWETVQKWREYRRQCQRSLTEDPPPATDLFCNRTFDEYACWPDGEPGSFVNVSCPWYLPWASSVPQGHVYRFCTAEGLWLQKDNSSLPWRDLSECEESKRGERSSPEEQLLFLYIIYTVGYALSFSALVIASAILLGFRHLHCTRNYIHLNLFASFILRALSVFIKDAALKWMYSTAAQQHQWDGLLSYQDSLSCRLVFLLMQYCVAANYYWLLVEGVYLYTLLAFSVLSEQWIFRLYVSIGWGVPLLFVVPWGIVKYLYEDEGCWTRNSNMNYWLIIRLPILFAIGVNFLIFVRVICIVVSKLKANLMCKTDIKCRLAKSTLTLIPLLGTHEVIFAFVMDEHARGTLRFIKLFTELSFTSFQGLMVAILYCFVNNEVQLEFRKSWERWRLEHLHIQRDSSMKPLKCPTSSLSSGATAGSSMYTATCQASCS

| Binder | cAMP EC50 (assay 1) (human glucagon receptor) | cAMP EC50 (assay 1) (human GLP-1 receptor) | cAMP EC50 (assay 1) [1] |
| --- | --- | --- | --- |
| HSQGTFTSDYSEYK([γGlu-Palmitoyl])DSERARDFVAWLVAGG-NH2 (N-terminus assumed; SMILES CCCCCCCCCCCCCCCC(=O)N[C@@H](CCC(=O)NCCCC[C@H](NC(=O)[C@H](Cc1ccc(O)cc1)NC(=O)[C@H](CCC(=O)O)NC(=O)[C@H](CO)NC(=O)[C@H](Cc1ccc(O)cc1)NC(=O)[C@H](CC(=O)O)NC(=O)[C@H](CO)NC(=O)[C@@H](NC(=O)[C@H](Cc1ccccc1)NC(=O)[C@@H](NC(=O)CNC(=O)[C@H](CCC(N)=O)NC(=O)[C@H](CO)NC(=O)[C@@H](N)Cc1c[nH]cn1)[C@@H](C)O)[C@@H](C)O)C(=O)N[C@@H](CC(=O)O)C(=O)N[C@@H](CO)C(=O)N[C@@H](CCC(=O)O)C(=O)N[C@@H](CCCNC(=N)N)C(=O)N[C@@H](C)C(=O)N[C@@H](CCCNC(=N)N)C(=O)N[C@@H](CC(=O)O)C(=O)N[C@@H](Cc1ccccc1)C(=O)N[C@H](C(=O)N[C@@H](C)C(=O)N[C@@H](Cc1c[nH]c2ccccc12)C(=O)N[C@@H](CC(C)C)C(=O)N[C@H](C(=O)N[C@@H](C)C(=O)NCC(=O)NCC(N)=O)C(C)C)C(C)C)C(=O)O) [g846] | 34.1 pM | 43.8 pM | 11800 pM |
| HSQGTFTSDYSKYK([γGlu-Palmitoyl])DSRSARDFVEWLVAGG-NH2 (N-terminus assumed; SMILES CCCCCCCCCCCCCCCC(=O)N[C@@H](CCC(=O)NCCCC[C@H](NC(=O)[C@H](Cc1ccc(O)cc1)NC(=O)[C@H](CCCCN)NC(=O)[C@H](CO)NC(=O)[C@H](Cc1ccc(O)cc1)NC(=O)[C@H](CC(=O)O)NC(=O)[C@H](CO)NC(=O)[C@@H](NC(=O)[C@H](Cc1ccccc1)NC(=O)[C@@H](NC(=O)CNC(=O)[C@H](CCC(N)=O)NC(=O)[C@H](CO)NC(=O)[C@@H](N)Cc1c[nH]cn1)[C@@H](C)O)[C@@H](C)O)C(=O)N[C@@H](CC(=O)O)C(=O)N[C@@H](CO)C(=O)N[C@@H](CCCNC(=N)N)C(=O)N[C@@H](CO)C(=O)N[C@@H](C)C(=O)N[C@@H](CCCNC(=N)N)C(=O)N[C@@H](CC(=O)O)C(=O)N[C@@H](Cc1ccccc1)C(=O)N[C@H](C(=O)N[C@@H](CCC(=O)O)C(=O)N[C@@H](Cc1c[nH]c2ccccc12)C(=O)N[C@@H](CC(C)C)C(=O)N[C@H](C(=O)N[C@@H](C)C(=O)NCC(=O)NCC(N)=O)C(C)C)C(C)C)C(=O)O) [g803] | 10.8 pM | 29.6 pM | 32900 pM |
| HSQGTFTSDYSKYK([γGlu-Palmitoyl])DSERARDFVAWLVAGG-NH2 (N-terminus assumed; SMILES CCCCCCCCCCCCCCCC(=O)N[C@@H](CCC(=O)NCCCC[C@H](NC(=O)[C@H](Cc1ccc(O)cc1)NC(=O)[C@H](CCCCN)NC(=O)[C@H](CO)NC(=O)[C@H](Cc1ccc(O)cc1)NC(=O)[C@H](CC(=O)O)NC(=O)[C@H](CO)NC(=O)[C@@H](NC(=O)[C@H](Cc1ccccc1)NC(=O)[C@@H](NC(=O)CNC(=O)[C@H](CCC(N)=O)NC(=O)[C@H](CO)NC(=O)[C@@H](N)Cc1c[nH]cn1)[C@@H](C)O)[C@@H](C)O)C(=O)N[C@@H](CC(=O)O)C(=O)N[C@@H](CO)C(=O)N[C@@H](CCC(=O)O)C(=O)N[C@@H](CCCNC(=N)N)C(=O)N[C@@H](C)C(=O)N[C@@H](CCCNC(=N)N)C(=O)N[C@@H](CC(=O)O)C(=O)N[C@@H](Cc1ccccc1)C(=O)N[C@H](C(=O)N[C@@H](C)C(=O)N[C@@H](Cc1c[nH]c2ccccc12)C(=O)N[C@@H](CC(C)C)C(=O)N[C@H](C(=O)N[C@@H](C)C(=O)NCC(=O)NCC(N)=O)C(C)C)C(C)C)C(=O)O) [g777] | 1.24 pM | 27.4 pM | 4530 pM |
| HSQGTFTSDYSEYK([γGlu-Palmitoyl])DSRRAQDFVQWLVAGG-NH2 (N-terminus assumed; SMILES CCCCCCCCCCCCCCCC(=O)N[C@@H](CCC(=O)NCCCC[C@H](NC(=O)[C@H](Cc1ccc(O)cc1)NC(=O)[C@H](CCC(=O)O)NC(=O)[C@H](CO)NC(=O)[C@H](Cc1ccc(O)cc1)NC(=O)[C@H](CC(=O)O)NC(=O)[C@H](CO)NC(=O)[C@@H](NC(=O)[C@H](Cc1ccccc1)NC(=O)[C@@H](NC(=O)CNC(=O)[C@H](CCC(N)=O)NC(=O)[C@H](CO)NC(=O)[C@@H](N)Cc1c[nH]cn1)[C@@H](C)O)[C@@H](C)O)C(=O)N[C@@H](CC(=O)O)C(=O)N[C@@H](CO)C(=O)N[C@@H](CCCNC(=N)N)C(=O)N[C@@H](CCCNC(=N)N)C(=O)N[C@@H](C)C(=O)N[C@@H](CCC(N)=O)C(=O)N[C@@H](CC(=O)O)C(=O)N[C@@H](Cc1ccccc1)C(=O)N[C@H](C(=O)N[C@@H](CCC(N)=O)C(=O)N[C@@H](Cc1c[nH]c2ccccc12)C(=O)N[C@@H](CC(C)C)C(=O)N[C@H](C(=O)N[C@@H](C)C(=O)NCC(=O)NCC(N)=O)C(C)C)C(C)C)C(=O)O) [g731] | 27.7 pM | 42.2 pM | 40700 pM |
| HGEGTFTSDYSKYK([γGlu-Palmitoyl])DSRRAQDFVQWLVAGG-NH2 (N-terminus assumed; SMILES CCCCCCCCCCCCCCCC(=O)N[C@@H](CCC(=O)NCCCC[C@H](NC(=O)[C@H](Cc1ccc(O)cc1)NC(=O)[C@H](CCCCN)NC(=O)[C@H](CO)NC(=O)[C@H](Cc1ccc(O)cc1)NC(=O)[C@H](CC(=O)O)NC(=O)[C@H](CO)NC(=O)[C@@H](NC(=O)[C@H](Cc1ccccc1)NC(=O)[C@@H](NC(=O)CNC(=O)[C@H](CCC(=O)O)NC(=O)CNC(=O)[C@@H](N)Cc1c[nH]cn1)[C@@H](C)O)[C@@H](C)O)C(=O)N[C@@H](CC(=O)O)C(=O)N[C@@H](CO)C(=O)N[C@@H](CCCNC(=N)N)C(=O)N[C@@H](CCCNC(=N)N)C(=O)N[C@@H](C)C(=O)N[C@@H](CCC(N)=O)C(=O)N[C@@H](CC(=O)O)C(=O)N[C@@H](Cc1ccccc1)C(=O)N[C@H](C(=O)N[C@@H](CCC(N)=O)C(=O)N[C@@H](Cc1c[nH]c2ccccc12)C(=O)N[C@@H](CC(C)C)C(=O)N[C@H](C(=O)N[C@@H](C)C(=O)NCC(=O)NCC(N)=O)C(C)C)C(C)C)C(=O)O) [g733] | 62000 pM | 23.1 pM | 817000 pM |
| HSQGTFTSDYSRK([γGlu-Palmitoyl])LDSERARDFVAWLVAGG-OH (N-terminus assumed; SMILES CCCCCCCCCCCCCCCC(=O)N[C@@H](CCC(=O)NCCCC[C@H](NC(=O)[C@H](CCCNC(=N)N)NC(=O)[C@H](CO)NC(=O)[C@H](Cc1ccc(O)cc1)NC(=O)[C@H](CC(=O)O)NC(=O)[C@H](CO)NC(=O)[C@@H](NC(=O)[C@H](Cc1ccccc1)NC(=O)[C@@H](NC(=O)CNC(=O)[C@H](CCC(N)=O)NC(=O)[C@H](CO)NC(=O)[C@@H](N)Cc1c[nH]cn1)[C@@H](C)O)[C@@H](C)O)C(=O)N[C@@H](CC(C)C)C(=O)N[C@@H](CC(=O)O)C(=O)N[C@@H](CO)C(=O)N[C@@H](CCC(=O)O)C(=O)N[C@@H](CCCNC(=N)N)C(=O)N[C@@H](C)C(=O)N[C@@H](CCCNC(=N)N)C(=O)N[C@@H](CC(=O)O)C(=O)N[C@@H](Cc1ccccc1)C(=O)N[C@H](C(=O)N[C@@H](C)C(=O)N[C@@H](Cc1c[nH]c2ccccc12)C(=O)N[C@@H](CC(C)C)C(=O)N[C@H](C(=O)N[C@@H](C)C(=O)NCC(=O)NCC(=O)O)C(C)C)C(C)C)C(=O)O) [g842] | 8.31 pM | 51.2 pM | 88300 pM |
| HGQGTFTSDYSKYK([γGlu-Palmitoyl])DSERARDFVAWLVAGG-NH2 (N-terminus assumed; SMILES CCCCCCCCCCCCCCCC(=O)N[C@@H](CCC(=O)NCCCC[C@H](NC(=O)[C@H](Cc1ccc(O)cc1)NC(=O)[C@H](CCCCN)NC(=O)[C@H](CO)NC(=O)[C@H](Cc1ccc(O)cc1)NC(=O)[C@H](CC(=O)O)NC(=O)[C@H](CO)NC(=O)[C@@H](NC(=O)[C@H](Cc1ccccc1)NC(=O)[C@@H](NC(=O)CNC(=O)[C@H](CCC(N)=O)NC(=O)CNC(=O)[C@@H](N)Cc1c[nH]cn1)[C@@H](C)O)[C@@H](C)O)C(=O)N[C@@H](CC(=O)O)C(=O)N[C@@H](CO)C(=O)N[C@@H](CCC(=O)O)C(=O)N[C@@H](CCCNC(=N)N)C(=O)N[C@@H](C)C(=O)N[C@@H](CCCNC(=N)N)C(=O)N[C@@H](CC(=O)O)C(=O)N[C@@H](Cc1ccccc1)C(=O)N[C@H](C(=O)N[C@@H](C)C(=O)N[C@@H](Cc1c[nH]c2ccccc12)C(=O)N[C@@H](CC(C)C)C(=O)N[C@H](C(=O)N[C@@H](C)C(=O)NCC(=O)NCC(N)=O)C(C)C)C(C)C)C(=O)O) [g732] | 39.6 pM | 23.2 pM | 29400 pM |
